Reference: article PMC10899660, “Global fungal-host interactome mapping identifies host targets of candidalysin” (Nature Communications, 2024)

Biological target: Recombinant Cyclin H (CCNH) protein with a C-HIS tag (human) (UniProt P51946)
Assay: SPR; Biacore T200, 25 °C, 30 μL/min, HBS-EP running buffer; CCNH amine-coupled on a CM5 chip (1200 RU); candidalysin in 1:1 serial dilution, multicycle, association 120 s, dissociation 150 s

Sequence of candidalysin (Ece1-III), synthetic peptide (Q07730 62-92 limits assumed): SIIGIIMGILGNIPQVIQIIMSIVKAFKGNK
Sequence of Recombinant Cyclin H (CCNH) protein with a C-HIS tag (human) (P51946 whole entry): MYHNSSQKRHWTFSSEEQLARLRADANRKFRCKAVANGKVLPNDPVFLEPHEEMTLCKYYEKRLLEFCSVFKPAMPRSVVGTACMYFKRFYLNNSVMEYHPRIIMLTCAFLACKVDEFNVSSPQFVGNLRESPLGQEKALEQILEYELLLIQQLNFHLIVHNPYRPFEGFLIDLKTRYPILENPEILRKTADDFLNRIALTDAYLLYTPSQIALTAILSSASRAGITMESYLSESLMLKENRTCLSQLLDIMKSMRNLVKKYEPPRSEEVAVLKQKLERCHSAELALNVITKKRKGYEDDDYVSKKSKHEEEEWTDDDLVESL

“candidalysin (Ece1-III), synthetic peptide” gave a Kd of 17.2 nM, a koff of 0.00171 s⁻¹ and a kon of 99200 M⁻¹ s⁻¹.
